Results from the supplement of paper PMC10126150.
± gives the standard deviation of the averaged measurements.

test system: ATP; assay: switch fluorescence ratio, 500 uM ATP over buffer (Cy3 cluster intensity, sum of 5 cycles each) (fold (ratio)); higher = stronger signal-on switching upon ATP binding; sequences stand for … in TCGTCGGCAGCGTCAGATGTGTATAAGAGACAGTTTTTTTTTTTTTTTTTTTTTTTTT…TC; details: aptamer strand: ATP DNA aptamer (quencher-CACCTGGGGGAGTATTGCGGAGGAAGG + anchor), 100 nM annealed; ATP concentration: 500 uM
How it was run: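 After annealing to 100 nM quencher-labelled ATP aptamer, Cy3-labelled switching-strand clusters on a modified Illumina MiSeq flow-cell were imaged in selection buffer. A second image followed after 15 min with 500 uM ATP at 22 °C, and five such buffer/ATP cycles were done, each separated by NaOH stripping and re-annealing. The fluorescence ratio, averaged per switch-domain sequence, is summed target-cycle over summed buffer-cycle Cy3 intensity per cluster, with clusters outside 100-1000 RFU excluded.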
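Also: ATP exposure 15 min at 22 °C before imaging.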

Row | Sequence | switch fluorescence ratio
1 | TATGGCTTTG | 0.9945 ± 0.0061
2 | TATGGGAAGA | 0.985 ± 0.027
3 | TATGGGCCTA | 0.971 ± 0.053
4 | TATGGGCTAC | 1.56 ± 0.74
5 | TATGGGCTGG | 0.979 ± 0.049
6 | TATGGGGAAT | 1.03 ± 0.098
7 | TATGGGGCTT | 0.992 ± 0.017
8 | TATGGGGTAT | 0.9863 ± 0.0055
9 | TATGGGGTGT | 1.01 ± 0.033
10 | TATGGGTACG | 1.01 ± 0.016
11 | TATGGGTCGG | 1 ± 0.043
12 | TATGGGTGGG | 0.964 ± 0.018
13 | TATGGTCAG | 1.02 ± 0.042
14 | TATGGTGAGG | 0.976 ± 0.013
15 | TATGGTGGGT | 0.995 ± 0.027
16 | TATGGTGTTC | 0.981 ± 0.015
17 | TATGGTTTTG | 1.01 ± 0.017
18 | TATGTACATG | 1 ± 0.026
19 | TATGTAGGGC | 1.02 ± 0.05
20 | TATGTCGGCG | 0.991 ± 0.055
21 | TATGTCGGTT | 0.985 ± 0.033
22 | TATGTCTCCG | 1.03 ± 0.017
23 | TATGTCTCGC | 0.995 ± 0.044
24 | TATGTGAGCT | 1.01 ± 0.024
25 | TATGTGAGGG | 0.988 ± 0.033

Row | Sequence | switch fluorescence ratio
26 | TATGTGAGTA | 1.01 ± 0.013
27 | TATGTGATGG | 0.9874 ± 0.0053
28 | TATGTGGACT | 1 ± 0.057
29 | TATGTGGGTA | 0.983 ± 0.026
30 | TATGTGTGAC | 1.03 ± 0.021
31 | TATGTTACCA | 0.977 ± 0.046
32 | TATGTTATTC | 1.01 ± 0.045
33 | TATGTTCACG | 0.9924 ± 0.0042
34 | TATGTTGCGT | 0.9975 ± 0.0078
35 | TATGTTGTCC | 0.977 ± 0.018
36 | TATGTTGTGA | 0.9902 ± 0.0039
37 | TATGTTTAAA | 0.9922 ± 0.0042
38 | TATGTTTCAG | 0.972 ± 0.038
39 | TATTAAATTG | 0.9975 ± 0.0028
40 | TATTAACATC | 1.04 ± 0.014
41 | TATTAAGATA | 0.987 ± 0.043
42 | TATTAATATT | 1.003 ± 0.0059
43 | TATTAATCGA | 1 ± 0.016
44 | TATTAATTCT | 0.972 ± 0.036
45 | TATTAATTGC | 0.995 ± 0.025
46 | TATTAATTTT | 1.02 ± 0.015
47 | TATTACAGGT | 1.03 ± 0.0089
48 | TATTACGGGG | 1.005 ± 0.006
49 | TATTAGATTT | 0.996 ± 0.014
50 | TATTAGGGTT | 1.03 ± 0.045

Row | Sequence | switch fluorescence ratio
51 | TATTAGTACT | 0.989 ± 0.011
52 | TATTAGTGGG | 0.979 ± 0.025
53 | TATTAGTTGG | 0.971 ± 0.023
54 | TATTCGAAAT | 1.02 ± 0.028
55 | TATTCGCCTT | 1.11 ± 0.12
56 | TATTCGGTCG | 0.993 ± 0.025
57 | TATTCGTATT | 0.981 ± 0.029
58 | TATTCTAGTA | 1.01 ± 0.022
59 | TATTCTAGTG | 1.013 ± 0.01
60 | TATTCTCTTT | 1.04 ± 0.081
61 | TATTGAAAAA | 1.06 ± 0.048
62 | TATTGAACGA | 1 ± 0.011
63 | TATTGAAGAG | 1.008 ± 0.0076
64 | TATTGACCGT | 1.04 ± 0.029
65 | TATTGACGGA | 1.006 ± 0.0096
66 | TATTGCCTGT | 0.974 ± 0.019
67 | TATTGCTTT | 0.977 ± 0.012
68 | TATTGGCTTT | 0.989 ± 0.014
69 | TATTGGGAGG | 0.968 ± 0.023
70 | TATTGGTGCA | 0.967 ± 0.017
71 | TATTGTATGC | 0.996 ± 0.037
72 | TATTGTCTAC | 0.9901 ± 0.0019
73 | TATTGTGAAA | 0.988 ± 0.012
74 | TATTGTGAAT | 1 ± 0.014
75 | TATTGTGTCG | 1.02 ± 0.016

Row | Sequence | switch fluorescence ratio
76 | TATTGTTTTG | 0.986 ± 0.033
77 | TATTTAAAAC | 1.03 ± 0.021
78 | TATTTAATTT | 0.997 ± 0.026
79 | TATTTAGACC | 1.04 ± 0.012
80 | TATTTAGAGG | 1.01 ± 0.079
81 | TATTTAGGGA | 0.987 ± 0.022
82 | TATTTAGGGT | 1.01 ± 0.021
83 | TATTTATAGC | 1.02 ± 0.013
84 | TATTTATCTG | 1.02 ± 0.019
85 | TATTTATGGT | 0.976 ± 0.039
86 | TATTTATGTC | 1.02 ± 0.025
87 | TATTTATTGT | 1.01 ± 0.008
88 | TATTTCATTT | 1.06 ± 0.072
89 | TATTTCCACT | 1.023 ± 0.01
90 | TATTTCGCGG | 0.993 ± 0.045
91 | TATTTCGGTG | 0.982 ± 0.027
92 | TATTTCTGTT | 0.984 ± 0.025
93 | TATTTGAAAT | 1.01 ± 0.039
94 | TATTTGAGGG | 1 ± 0.041
95 | TATTTGCACG | 1.07 ± 0.062
96 | TATTTGCATC | 1.01 ± 0.018
97 | TATTTGGATC | 0.991 ± 0.035
98 | TATTTGGATG | 1.03 ± 0.069
99 | TATTTGGCTT | 1 ± 0.025
100 | TATTTGGGGC | 1.01 ± 0.058
